Measurements reported in patent publication US20240270839A1 (ELPISCIENCE SUZHOU BIOPHARMA, published 2024).

Tests used:
[1] = target: T1, human CLDN18.2 (hCLDN18.2), expressed on cells (human); assay: FACS, SNU620 cells over-expressing hCLDN18.2
T1 construct: the constructs in the cell lines are not described; also called Claudin18.2; HEK293-hCLDN18.2

[2] = target: T1, human CLDN18.2 (hCLDN18.2), expressed …; assay: FACS, MFC cells over-expressing hCLDN18.2

B1: hu35B4.H2L2 (antibody, V domains shown)
VH: EVQLLESGGGLVQPGGSLRLSCAASGFTLSSYALSWVRQAPGKGLEWVSYISNLGGSTFYPDTVKGRFTISRDNSKNTLYLQMNSLRAEDTAVYYCATHLYNYDAFASWGQGTLVTVSS
VL: DIQLTQSPSFLSASVGDRVTITCRASSSVNYIHWYQQKPGKAPKALIYATSNLASGVPSRFSGSGSGTEYTLTISSLQPEDFATYYCQQWNSNPLTFGQGTKLEIK
notes: humanized 35B4
Q: B1 was tested. Which EC50 [1] did it give?
A: The EC50 was 439 pM.

B2: hu35B4.H1L4 (antibody, V domains shown)
VH: EVQLLESGGGLVQPGGSLRLSCAASGFTLSSYALSWVRQAPGKGLEWVSYISNLGGSTFYPDTVKGRFTISRDNSKNTLYLQMNSLRAEDTAVYYCAKHLYNYDAFASWGQGTLVTVSS
VL: DIQLTQSPSFLSASVGDRVTMTCRASSSVNYIHWYQQKPGKSPKALIYATSNLASGVPSRFSGSGSGTEYTLTISSVQPEDFATYYCQQWNSNPLTFGQGTKLEIK
notes: humanized 35B4
Q: For B2, which EC50 [1] is on record?
A: The EC50 was 474 pM.

B3: hu35B4.H2L1 (antibody, V domains shown)
VH: EVQLLESGGGLVQPGGSLRLSCAASGFTLSSYALSWVRQAPGKGLEWVSYISNLGGSTFYPDTVKGRFTISRDNSKNTLYLQMNSLRAEDTAVYYCATHLYNYDAFASWGQGTLVTVSS
VL: DIQLTQSPSFLSASVGDRVTITCRASSSVNYIHWYQQKPGKAPKLLIYATSNLASGVPSRFSGSGSGTEFTLTISSLQPEDFATYYCQQWNSNPLTFGQGTKLEIK
notes: humanized 35B4
Q: B3 was tested. Which EC50 [1] did it give?
A: Its EC50 is 355 pM.

B4: hu35B4.H1L1 (antibody, V domains shown)
VH: EVQLLESGGGLVQPGGSLRLSCAASGFTLSSYALSWVRQAPGKGLEWVSYISNLGGSTFYPDTVKGRFTISRDNSKNTLYLQMNSLRAEDTAVYYCAKHLYNYDAFASWGQGTLVTVSS
VL: DIQLTQSPSFLSASVGDRVTITCRASSSVNYIHWYQQKPGKAPKLLIYATSNLASGVPSRFSGSGSGTEFTLTISSLQPEDFATYYCQQWNSNPLTFGQGTKLEIK
notes: humanized 35B4
Q: With B4 as the binder, how does the EC50 [1] read?
A: The EC50 was 525 pM.

B5: hu35B4.H1L3 (antibody, V domains shown)
VH: EVQLLESGGGLVQPGGSLRLSCAASGFTLSSYALSWVRQAPGKGLEWVSYISNLGGSTFYPDTVKGRFTISRDNSKNTLYLQMNSLRAEDTAVYYCAKHLYNYDAFASWGQGTLVTVSS
VL: DIQLTQSPSFLSASVGDRVTITCRASSSVNYIHWYQQKPGKSPKALIYATSNLASGVPSRFSGSGSGTEYTLTISSLQPEDFATYYCQQWNSNPLTFGQGTKLEIK
notes: humanized 35B4
Q: B5 was tested. Which EC50 [1] did it give?
A: Its EC50 is 382 pM.

B6: hu22E12.H2L2 (antibody, V domains shown)
VH: QVQLVQSGAEVKKPGASVKVSCKASGYTFTNWVHWVRQAPGQGLEWMGEINPTNARSNYNEKFKKRVTMTRDRSTSTVYMELSSLRSEDTAVYFCAGIYYGNSFAHWGQGTLVTVSS
VL: DIVMTQSPDSLAVSLGERATINCKSSQSLLNAGNQKNYLTWYQQKPGQPPKLLIYWSSTRESGVPDRFSGSGSGTDFTLTISSLQAEDVAVYHCQNNYYYPLTFGGGTKLEIK
notes: humanized 22E12
Q: How did the EC50 [2] turn out when B6 was run?
A: The EC50 was 586 pM.

B7: hu22E12.H4L1 (antibody, V domains shown)
VH: QVQLVQSGAEVVKPGASVKLSCKASGYTFTNWVHWVIQAPGQGLEWIGEINPTNARSNYNEKFKKRVTLTLDRSTSTVYMELSSLRSEDTAVYFCAGIYYGNSFAHWGQGTLVTVSS
VL: DIVMTQSPDSLAVSLGERATINCKSSQSLLNAGNQKNYLTWYQQKPGQPPKLLIYWSSTRESGVPDRFSGSGSGTDFTLTISSLQAEDVAVYYCQNNYYYPLTFGGGTKLEIK
notes: humanized 22E12
Q: Which EC50 [2] does the source give for B7 here?
A: The EC50 was 1160 pM.

B8: hu22E12.H4L2 (antibody, V domains shown)
VH: QVQLVQSGAEVVKPGASVKLSCKASGYTFTNWVHWVIQAPGQGLEWIGEINPTNARSNYNEKFKKRVTLTLDRSTSTVYMELSSLRSEDTAVYFCAGIYYGNSFAHWGQGTLVTVSS
VL: DIVMTQSPDSLAVSLGERATINCKSSQSLLNAGNQKNYLTWYQQKPGQPPKLLIYWSSTRESGVPDRFSGSGSGTDFTLTISSLQAEDVAVYHCQNNYYYPLTFGGGTKLEIK
notes: humanized 22E12
Q: Which EC50 [2] does the source give for B8 here?
A: Its EC50 is 1050 pM.

B9: hu22E12.H2L1 (antibody, V domains shown)
VH: QVQLVQSGAEVKKPGASVKVSCKASGYTFTNWVHWVRQAPGQGLEWMGEINPTNARSNYNEKFKKRVTMTRDRSTSTVYMELSSLRSEDTAVYFCAGIYYGNSFAHWGQGTLVTVSS
VL: DIVMTQSPDSLAVSLGERATINCKSSQSLLNAGNQKNYLTWYQQKPGQPPKLLIYWSSTRESGVPDRFSGSGSGTDFTLTISSLQAEDVAVYYCQNNYYYPLTFGGGTKLEIK
notes: humanized 22E12
Q: With B9 as the binder, how does the EC50 [2] read?
A: Its EC50 is 656 pM.

B10: hu22E12.H1L3 (antibody, V domains shown)
VH: QVQLVQSGAEVKKPGASVKVSCKASGYTFTNWVHWVRQAPGQGLEWMGEINPTNARSNYNEKFKKRVTMTRDTSTSTVYMELSSLRSEDTAVYYCARIYYGNSFAHWGQGTLVTVSS
VL: DIVMTQSPDSLAVSLGERVTLNCKSSQSLLNAGNQKNYLTWYQQKPGQPPKLLIYWSSTRESGVPDRFSGSGSGTDFTLTISSVQAEDVAVYHCQNNYYYPLTFGGGTKLEIK
notes: humanized 22E12
Q: Which EC50 [2] does the source give for B10 here?
A: The EC50 was 1080 pM.

B11: hu22E12.H3L3 (antibody, V domains shown)
VH: QVQLVQSGAEVVKPGASVKVSCKASGYTFTNWVHWVIQAPGQGLEWMGEINPTNARSNYNEKFKKRVTMTLDRSTSTVYMELSSLRSEDTAVYFCAGIYYGNSFAHWGQGTLVTVSS
VL: DIVMTQSPDSLAVSLGERVTLNCKSSQSLLNAGNQKNYLTWYQQKPGQPPKLLIYWSSTRESGVPDRFSGSGSGTDFTLTISSVQAEDVAVYHCQNNYYYPLTFGGGTKLEIK
notes: humanized 22E12
Q: B11 was tested. Which EC50 [2] did it give?
A: Its EC50 is 1190 pM.

B12: hu22E12.H3L2 (antibody, V domains shown)
VH: QVQLVQSGAEVVKPGASVKVSCKASGYTFTNWVHWVIQAPGQGLEWMGEINPTNARSNYNEKFKKRVTMTLDRSTSTVYMELSSLRSEDTAVYFCAGIYYGNSFAHWGQGTLVTVSS
VL: DIVMTQSPDSLAVSLGERATINCKSSQSLLNAGNQKNYLTWYQQKPGQPPKLLIYWSSTRESGVPDRFSGSGSGTDFTLTISSLQAEDVAVYHCQNNYYYPLTFGGGTKLEIK
notes: humanized 22E12
Q: B12 was tested. Which EC50 [2] did it give?
A: The EC50 was 1250 pM.

B13: hu22E12.H4L3 (antibody, V domains shown)
VH: QVQLVQSGAEVVKPGASVKLSCKASGYTFTNWVHWVIQAPGQGLEWIGEINPTNARSNYNEKFKKRVTLTLDRSTSTVYMELSSLRSEDTAVYFCAGIYYGNSFAHWGQGTLVTVSS
VL: DIVMTQSPDSLAVSLGERVTLNCKSSQSLLNAGNQKNYLTWYQQKPGQPPKLLIYWSSTRESGVPDRFSGSGSGTDFTLTISSVQAEDVAVYHCQNNYYYPLTFGGGTKLEIK
notes: humanized 22E12
Q: B13 was tested. Which EC50 [2] did it give?
A: The EC50 was 2000 pM.

B14: hu22E12.H2L3 (antibody, V domains shown)
VH: QVQLVQSGAEVKKPGASVKVSCKASGYTFTNWVHWVRQAPGQGLEWMGEINPTNARSNYNEKFKKRVTMTRDRSTSTVYMELSSLRSEDTAVYFCAGIYYGNSFAHWGQGTLVTVSS
VL: DIVMTQSPDSLAVSLGERVTLNCKSSQSLLNAGNQKNYLTWYQQKPGQPPKLLIYWSSTRESGVPDRFSGSGSGTDFTLTISSVQAEDVAVYHCQNNYYYPLTFGGGTKLEIK
notes: humanized 22E12
Q: For B14, which EC50 [2] is on record?
A: The EC50 was 642 pM.

B15: hu22E12.H1L1 (antibody, V domains shown)
VH: QVQLVQSGAEVKKPGASVKVSCKASGYTFTNWVHWVRQAPGQGLEWMGEINPTNARSNYNEKFKKRVTMTRDTSTSTVYMELSSLRSEDTAVYYCARIYYGNSFAHWGQGTLVTVSS
VL: DIVMTQSPDSLAVSLGERATINCKSSQSLLNAGNQKNYLTWYQQKPGQPPKLLIYWSSTRESGVPDRFSGSGSGTDFTLTISSLQAEDVAVYYCQNNYYYPLTFGGGTKLEIK
notes: humanized 22E12
Q: With B15 as the binder, how does the EC50 [2] read?
A: The EC50 was 1310 pM.

B16: hu22E12.H3L1 (antibody, V domains shown)
VH: QVQLVQSGAEVVKPGASVKVSCKASGYTFTNWVHWVIQAPGQGLEWMGEINPTNARSNYNEKFKKRVTMTLDRSTSTVYMELSSLRSEDTAVYFCAGIYYGNSFAHWGQGTLVTVSS
VL: DIVMTQSPDSLAVSLGERATINCKSSQSLLNAGNQKNYLTWYQQKPGQPPKLLIYWSSTRESGVPDRFSGSGSGTDFTLTISSLQAEDVAVYYCQNNYYYPLTFGGGTKLEIK
notes: humanized 22E12
Q: B16 was tested. Which EC50 [2] did it give?
A: Its EC50 is 1230 pM.
